From the supplement of paper PMC11316812
± gives the standard deviation of the averaged measurements.

Tests used:
[1] = system: MCF7; assay: percentage of EdU-negative (G0-arrested) nuclei per well, 72 h; higher = more G0 arrest; settings: reference: sequence is the full UniProt precursor, the tested protein was the secreted form or ectodomain
[2] = system: hTERT-HMEC; assay: as above; settings: reference: sequence is the full UniProt precursor, the tested protein was the secreted form or ectodomain
[3] = protein concentration 0.0225 µM
[4] = protein concentration 0.03125 µM
[5] = protein concentration 0.3125 µM
[6] = protein concentration 0.0165575 µM
[7] = protein concentration 0.165575 µM
[8] = protein concentration 0.01425 µM
[9] = protein concentration 0.1425 µM
[10] = protein concentration 0.0254286 µM
[11] = protein concentration 0.254286 µM
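Note: secreted proteins added to cultured cells, EdU pulse at the end, nuclei found by Hoechst imaging, EdU status from nuclear versus surrounding ring intensity ratio, PBS as neutral control.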

MGLHLRPYRVGLLPDGLLFLLLLLMLLADPALPAGRHPPVVLVPGDLGNQLEAKLDKPTVVHYLCSKKTESYFTIWLNLELLLPVIIDCWIDNIRLVYNKTSRATQFPDGVDVRVPGFGKTFSLEFLDPSKSSVGSYFHTMVESLVGWGYTRGEDVRGAPYDWRRAPNENGPYFLALREMIEEMYQLYGGPVVLVAHSMGNMYTLYFLQRQPQAWKDKYIRAFVSLGAPWGGVAKTLRVLASGDNNRIPVIGPLKIREQQRSAVSTSWLLPYNYTWSPEKVFVQTPTINYTLRDYRKFFQDIGFEDGWLMRQDTEGLVEATMPPGVQLHCLYGTGVPTPDSFYYESFPDRDPKICFGDGDGTVNLKSALQCQAWQSRQEHQVLLQELPGSEHIEMLANATTLAYLKRVLLGP [Q8NCC3]
percentage of EdU-negative [1, 3]: 25.3 ± 2.1% | percentage of EdU-negative ([1]; protein concentration 0.225 µM): 24.9 ± 0.58% | percentage of EdU-negative [2, 3]: 4.6 ± 0.49% | percentage of EdU-negative ([2]; protein concentration 0.225 µM): 6.68 ± 0.68%

MGLIWLLLLSLLEPGWPAAGPGARLRRDAGGRGGVYEHLGGAPRRRKLYCATKYHLQLHPSGRVNGSLENSAYSILEITAVEVGIVAIRGLFSGRYLAMNKRGRLYASEHYSAECEFVERIHELGYNTYASRLYRTVSSTPGARRQPSAERLWYVSVNGKGRPRRGFKTRRTQKSSLFLPRVLDHRDHEMVRQLQSGLPRPPGKGVQPRRRRQKQSPDNLEPSHVQASRLGSQLEASAH
percentage of EdU-negative ([1]; protein concentration 0.01 µM): 26.1 ± 0.46% | percentage of EdU-negative ([1]; protein concentration 0.1 µM): 27.4 ± 0.42% | percentage of EdU-negative ([2]; protein concentration 0.01 µM): 5.1 ± 0.81% | percentage of EdU-negative ([2]; protein concentration 0.1 µM): 6.93 ± 0.14%

MGLLLPLALCILVLCCGAMSPPQLALNPSALLSRGCNDSDVLAVAGFALRDINKDRKDGYVLRLNRVNDAQEYRRGGLGSLFYLTLDVLETDCHVLRKKAWQDCGMRIFFESVYGQCKAIFYMNNPSRVLYLAAYNCTLRPVSKKKIYMTCPDCPSSIPTDSSNHQVLEAATESLAKYNNENTSKQYSLFKVTRASSQWVVGPSYFVEYLIKESPCTKSQASSCSLQSSDSVPVGLCKGSLTRTHWEKFVSVTCDFFESQAPATGSENSAVNQKPTNLPKVEESQQKNTPPTDSPSKAGPRGSVQYLPDLDDKNSQEKGPQEAFPVHLDLTTNPQGETLDISFLFLEPMEEKLVVLPFPKEKARTAECPGPAQNASPLVLPP [Q9UGM5]
percentage of EdU-negative [1, 4]: 26.5 ± 2.8% | percentage of EdU-negative [1, 5]: 27.9 ± 0.97% | percentage of EdU-negative [2, 4]: 5.24 ± 0.29% | percentage of EdU-negative [2, 5]: 7.43 ± 0.49%

MGLLSAPPCTQRITWKGLLLTASLLNFWNPPTTAQVTIEAQPTKVSEGKDVLLLVHNLPQNLTGYIWYKGQIRDLYHYITSYVVDGQIIIYGPAYSGRETIYSNASLLIQNVTQEDAGSYTLHIIMGGDENRGVTGHFTFTLYLETPKPSISSSKLNPREAMEAVSLTCDPETPDASYLWWMNGQSLPMSHRLQLSETNRTLFLLGVTKYTAGPYECEIRNPVSASRSDPFTLNLLPKLPKPYITINNLKPRENKDVLNFTCEPKSENYTYIWWLNGQSLPVSPRVKRPIENRILILPSVTRNETGPYQCEIRDQYGGIRSYPVTLNVLYGPDLPRIYPSFTYYRSGEVLYLSCSADSNPPAQYSWTINGKFQLSGQKLFIPQITTKHSGLYACSVRNSATGKESSKSMTVKVSGKRIPVSLAIGI [Q9UQ74]
percentage of EdU-negative [1, 6]: 26.7 ± 1% | percentage of EdU-negative [1, 7]: 31.5 ± 1.5% | percentage of EdU-negative [2, 6]: 4.16 ± 0.38% | percentage of EdU-negative [2, 7]: 6.44 ± 0.53%

MGLQACLLGLFALILSGKCSYSPEPDQRRTLPPGWVSLGRADPEEELSLTFALRQQNVERLSELVQAVSDPSSPQYGKYLTLENVADLVRPSPLTLHTVQKWLLAAGAQKCHSVITQDFLTCWLSIRQAELLLPGAEFHHYVGGPTETHVVRSPHPYQLPQALAPHVDFVGGLHRFPPTSSLRQRPEPQVTGTVGLHLGVTPSVIRKRYNLTSQDVGSGTSNNSQACAQFLEQYFHDSDLAQFMRLFGGNFAHQASVARVVGQQGRGRAGIEASLDVQYLMSAGANISTWVYSSPGRHEGQEPFLQWLMLLSNESALPHVHTVSYGDDEDSLSSAYIQRVNTELMKAAARGLTLLFASGDSGAGCWSVSGRHQFRPTFPASSPYVTTVGGTSFQEPFLITNEIVDYISGGGFSNVFPRPSYQEEAVTKFLSSSPHLPPSSYFNASGRAYPDVAALSDGYWVVSNRVPIPWVSGTSASTPVFGGILSLINEHRILSGRPPLGFLNPRLYQQHGAGLFDVTRGCHESCLDEEVEGQGFCSGPGWDPVTGWGTPNFPALLKTLLNP
percentage of EdU-negative [1, 3]: 25.3 ± 1.4% | percentage of EdU-negative ([1]; protein concentration 0.225 µM): 27.9 ± 4.2% | percentage of EdU-negative [2, 3]: 5.11 ± 0.24% | percentage of EdU-negative ([2]; protein concentration 0.225 µM): 10.72 ± 0.011%

MGLQTTKWPSHGAFFLKSWLIISLGLYSQVSKLLACPSVCRCDRNFVYCNERSLTSVPLGIPEGVTVLYLHNNQINNAGFPAELHNVQSVHTVYLYGNQLDEFPMNLPKNVRVLHLQENNIQTISRAALAQLLKLEELHLDDNSISTVGVEDGAFREAISLKLLFLSKNHLSSVPVGLPVDLQELRVDENRIAVISDMAFQNLTSLERLIVDGNLLTNKGIAEGTFSHLTKLKEFSIVRNSLSHPPPDLPGTHLIRLYLQDNQINHIPLTAFSNLRKLERLDISNNQLRMLTQGVFDNLSNLKQLTARNNPWFCDCSIKWVTEWLKYIPSSLNVRGFMCQGPEQVRGMAVRELNMNLLSCPTTTPGLPLFTPAPSTASPTTQPPTLSIPNPSRSYTPPTPTTSKLPTIPDWDGRERVTPPISERIQLSIHFVNDTSIQVSWLSLFTVMAYKLTWVKMGHSLVGGIVQERIVSGEKQHLSLVNLEPRSTYRICLVPLDAFNYRAVEDTICSEATTHASYLNNGSNTASSHEQTTSHSMGSPFLLAGLIGGAVIFVLVVLLSVFCWHMHKKGRYTSQKWKYNRGRRKDDYCEAGTKKDNSILEMTETSFQIVSLNNDQLLKGDFRLQPIYTPNGGINYTDCHIPNNMRYCNSSVPDLEHCHT
percentage of EdU-negative [1, 8]: 22.9 ± 1.9% | percentage of EdU-negative [1, 9]: 27 ± 0.45% | percentage of EdU-negative [2, 8]: 6.49 ± 1.2% | percentage of EdU-negative [2, 9]: 7.12 ± 0.37%

MGLSTVPDLLLPLVLLELLVGIYPSGVIGLVPHLGDREKRDSVCPQGKYIHPQNNSICCTKCHKGTYLYNDCPGPGQDTDCRECESGSFTASENHLRHCLSCSKCRKEMGQVEISSCTVDRDTVCGCRKNQYRHYWSENLFQCFNCSLCLNGTVHLSCQEKQNTVCTCHAGFFLRENECVSCSNCKKSLECTKLCLPQIENVKGTEDSGTTVLLPLVIFFGLCLLSLLFIGLMYRYQRWKSKLYSIVCGKSTPEKEGELEGTTTKPLAPNPSFSPTPGFTPTLGFSPVPSSTFTSSSTYTPGDCPNFAAPRREVAPPYQGADPILATALASDPIPNPLQKWEDSAHKPQSLDTDDPATLYAVVENVPPLRWKEFVRRLGLSDHEIDRLELQNGRCLREAQYSMLATWRRRTPRREATLELLGRVLRDMDLLGCLEDIEEALCGPAALPPAPSLLR
percentage of EdU-negative [1, 4]: 24.9 ± 3.4% | percentage of EdU-negative [1, 5]: 25.5 ± 0.84% | percentage of EdU-negative [2, 4]: 4.76 ± 0.43% | percentage of EdU-negative [2, 5]: 5.34 ± 0.28%

MGLTLLLLLLLGLEGQGIVGSLPEVLQAPVGSSILVQCHYRLQDVKAQKVWCRFLPEGCQPLVSSAVDRRAPAGRRTFLTDLGGGLLQVEMVTLQEEDAGEYGCMVDGARGPQILHRVSLNILPPEEEEETHKIGSLAENAFSDPAGSANPLEPSQDEKSIPLIWGAVLLVGLLVAAVVLFAVMAKRKQGNRLGVCGRFLSSRVSGMNPSSVVHHVSDSGPAAELPLDVPHIRLDSPPSFDNTTYTSLPLDSPSGKPSLPAPSSLPPLPPKVLVCSKPVTYATVIFPGGNKGGGTSCGPAQNPPNNQTPSS [Q86YW5]
percentage of EdU-negative [1, 10]: 20.7 ± 3.4% | percentage of EdU-negative [1, 11]: 26 ± 4.5% | percentage of EdU-negative [2, 10]: 5.07 ± 0.49% | percentage of EdU-negative [2, 11]: 5.75 ± 0.65%

MGLWGQSVPTASSARAGRYPGARTASGTRPWLLDPKILKFVVFIVAVLLPVRVDSATIPRQDEVPQQTVAPQQQRRSLKEEECPAGSHRSEYTGACNPCTEGVDYTIASNNLPSCLLCTVCKSGQTNKSSCTTTRDTVCQCEKGSFQDKNSPEMCRTCRTGCPRGMVKVSNCTPRSDIKCKNESAASSTGKTPAAEETVTTILGMLASPYHYLIIIVVLVIILAVVVVGFSCRKKFISYLKGICSGGGGGPERVHRVLFRRRSCPSRVPGAEDNARNETLSNRYLQPTQVSEQEIQGQELAELTGVTVELPEEPQRLLEQAEAEGCQRRRLLVPVNDADSADISTLLDASATLEEGHAKETIQDQLVGSEKLFYEEDEAGSATSCL [Q9UBN6]
percentage of EdU-negative [1, 3]: 24 ± 0.81% | percentage of EdU-negative ([1]; protein concentration 0.225 µM): 24.3 ± 2% | percentage of EdU-negative [2, 3]: 4.16 ± 0.28% | percentage of EdU-negative ([2]; protein concentration 0.225 µM): 4.86 ± 0.69%
